The text below walks through data of patent US20220064310A1 (DEVELOPMENT CENTER FOR BIOTECHNOLOGY, published 2022).

One test addresses T1, mouse CSF-1R (mouse, UniProt P09581 20-511, limits assumed).
T1 sequence (looked up): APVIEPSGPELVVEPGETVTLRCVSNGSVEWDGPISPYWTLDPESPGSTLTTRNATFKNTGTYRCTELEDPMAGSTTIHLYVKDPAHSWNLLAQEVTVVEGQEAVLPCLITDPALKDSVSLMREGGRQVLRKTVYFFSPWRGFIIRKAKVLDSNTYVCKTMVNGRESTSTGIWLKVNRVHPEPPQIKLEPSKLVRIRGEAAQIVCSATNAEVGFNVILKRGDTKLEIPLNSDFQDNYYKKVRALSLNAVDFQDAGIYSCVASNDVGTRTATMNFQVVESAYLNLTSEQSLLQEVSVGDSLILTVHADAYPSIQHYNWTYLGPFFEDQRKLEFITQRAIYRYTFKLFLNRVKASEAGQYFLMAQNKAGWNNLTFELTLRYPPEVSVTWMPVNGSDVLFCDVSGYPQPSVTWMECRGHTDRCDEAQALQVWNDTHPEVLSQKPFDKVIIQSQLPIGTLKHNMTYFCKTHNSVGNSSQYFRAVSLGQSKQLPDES
In words: not described.

Test [1] addresses T2, human CSF-1R-Fc protein (M-CSF R/CD115 Fc chimera, R&D Systems) (human, UniProt P07333 20-512).
T2 construct: Fc part of the bought chimera not given
In words: ELISA, 100 ng human CSF-1R-Fc coated, four parameter logistic fit. As for the experimental part:
(§1) After binding and washing, the bound mAb AB21 was assessed using a horseradish peroxidase conjugated secondary antibody.
(§2) One hundred (100) ng of human CSF-1R-Fc protein was coated on a 96-well ELISA plate, and the plate was further washed with PBS. Serial dilutions from 1×10⁻¹² to 1×10⁻⁸ M of AB21 mAb antibody were added to the plate, and the plate was incubated at 37° C. for 1 hour. A goat anti-mouse IgG conjugated with horseradish peroxidase (HRP) was added. After 1 hour, 3,3′,5,5′-Tetramethylbenzidine (TMB) was added and OD450 was read. Every study was repeated three times. Data were presented as mean SD. OD readings and concentrations of antibodies were used to make a multiple scatter plot using GraphPad Prism 5. The values were predicted by four parameter logistic fit.

Test [2] deals with T3, CSF-1R ECD variant 228-233A (human, UniProt P07333 20-512).
T3 chain: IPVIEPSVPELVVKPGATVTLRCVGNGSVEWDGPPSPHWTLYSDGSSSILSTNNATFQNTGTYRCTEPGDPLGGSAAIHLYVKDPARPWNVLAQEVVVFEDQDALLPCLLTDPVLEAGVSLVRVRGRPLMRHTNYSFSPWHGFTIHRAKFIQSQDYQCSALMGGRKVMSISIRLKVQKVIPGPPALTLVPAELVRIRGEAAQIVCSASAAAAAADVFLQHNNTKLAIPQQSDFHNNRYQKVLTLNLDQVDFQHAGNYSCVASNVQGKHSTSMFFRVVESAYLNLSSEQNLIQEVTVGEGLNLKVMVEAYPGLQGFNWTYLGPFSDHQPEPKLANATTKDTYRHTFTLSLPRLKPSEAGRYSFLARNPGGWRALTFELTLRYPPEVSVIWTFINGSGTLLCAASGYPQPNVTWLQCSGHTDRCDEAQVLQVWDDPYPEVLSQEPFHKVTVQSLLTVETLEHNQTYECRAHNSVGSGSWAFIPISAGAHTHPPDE
Kind of test: ELISA, coated CSF-1R ECD variant 228-233A, AB21 titrated, Abs450. On the procedure:
as §2
To determine the binding epitopes of anti-CSF-1R antibody AB21, different CSF-1R extracellular domain variants that certain residues were replaced with alanine were constructed. […] After the variant proteins were purified, the binding affinity of AB21 mAb to these CSF-1R-ECD variants were analyzed by ELISA with the process described in Example 1.
(An ELISA detects its analyte on a solid surface through an enzyme-linked reagent.)

The target in test [3] is T4, human CSF-1R extracellular domain (CSF-1R-ECD) (human, UniProt P07333 20-512). Kind of test: SPR BIAcore T200, AB21 amine-coupled, CSF-1R-ECD 0.3125-40 nM as analyte, 25 C. The text has this:
(§3) To know the biding kinetics difference among individual antibodies, surface plasmon resonance (SPR) measurement with a BIAcore T200 (BIAcore, Inc., Piscataway, N.J.) was used as previously described (Karlsson & Fait, (1997) J. Immunol Methods 200:121-133). Carboxymethylated dextran biosensor chips (CMS, BIAcore Inc.) were activated with N-ethyl-N′-(3-dimethyl aminopropyl)-carbodiimide hydrochloride (EDC) and N-hydroxy succinimide (NHS) according to the supplier's instructions. AB21 mAb was diluted with 10 mM sodium acetate, pH 4.8, into 5 microgram/ml before injection at a flow rate of 20 micro L/minute to achieve approximately 100 response units (RU) of coupled protein followed by the injection of 1M ethanolamine to block unreacted groups. For kinetics measurements, two-fold serial dilutions of CSF-1R-ECD (0.3125 nM to 40 nM) were injected in HBS-P BIAcore running buffer provided by the manufacturer (BIAcore, Inc., Piscataway, N.J.) at 25° C. at a flow rate of 30 μL/min, and binding responses on the AB21 mAb were corrected by subtraction of responses on a blank flow cell. Association rates (kon or ka) and dissociation rates (koff or kd) were calculated using a simple one-to-one Langmuir binding model with separate fittings of kon and koff was used. (BIAcore™ Evaluation Software version 3.2).
A general note: In SPR one partner is held on a chip, and binding of the other changes the refractive index at the surface.

Test [4] deals with T2, human CSF-1R-Fc protein (M-CSF R/CD115 …). In words: ELISA, coated M-CSF R/CD115 Fc chimera (R&D), AB21 titrated, goat anti-mouse IgG-HRP, Abs450. On the procedure:
as §1, §2

The target of test [5] is T5, human CSF-1R on the cell surface (THP-1 cells, endogenous); Ba/F3 cells stably expressing full-length human … (human, UniProt P07333 20-972).
T5 construct: whole, on cells; also called Ba/F3-CSF-1R; Ba/F3-hCSF-1R
In words: flow cytometry on THP-1 cells, FITC anti-mouse secondary antibody, readout CD115+ of single cells (%). As for the experimental part: In addition to binding CSF-1R ECD in vitro, antibodies of the invention can also bind CSF-1R on cells. In this example, THP-1 cells (human monocytic cell line, ATCC® TIB-202™) were stained in different concentrations of antibodies (AB21) from 6 to 0.625 μg/ml. After washing, cells were stained with secondary antibody FITC anti-mouse (1:500 dilution). Cells were fixed with a fixation buffer (FluroFix™ buffer, Biolegend) and analyzed with LSRFortessa FACS analyzer (Becton Dickson, US). […] The dose-dependent binding fits a sigmoid curve in the semi-log plot, indicating binding to a specific site (i.e., the antibody binds specifically to the target on the THP-1 cells).
(In general: In flow cytometry, cells or beads pass a laser one at a time.)

For test [6], the target named is T4, human CSF-1R extracellular domain …. Kind of test: Biacore T200 SPR, AB21 amine-coupled on the chip, CSF-1R-ECD injected at 0.3125 to 40 nM, 1:1 Langmuir fit.
Excerpt: as §3

The target of test [7] is T6, CSF-1R-ECD-human Fc (in house) (human, UniProt P07333 20-512).
T6 construct: In-house fusion; also called CSF-1R-ECD-hFc; CSF1R-ECD-hFc; not shown: human Fc
In words: blocking ELISA: coated CSF-1R-ECD-human Fc, AB21 titrated together with M-CSF, bound CSF-1 detected with biotinylated anti-CSF-1 BAF216 and streptavidin-HRP, Abs450. As for the experimental part:
CSF-1R-ECD-human Fe (in house) is diluted to 1.2 μg/ml with coating buffer and coating overnight at 4° C. After incubation step, plates were washed 1 time with the wash buffer and blocking with 1% casein blocking buffer at room temperature for 2 hours. Different dilutions of purified AB21 antibodies were incubated with 250 ng/ml of M-CSF (R&D system, 216-GMP-025) in dilution buffer at 37° C. for 1 hour. After 5 times of wash, the ligand which bound to the receptor can be detected by 50 ng/ml biotinylated […] clone BAF216 (R&D Systems, UK) and 1:5000 diluted streptavidin HRP (Roche Diagnostics GmbH, DE, Cat. No. 11089153001) after 1 hour incubation. Anti CSF-1R SC 2-4A5 (Santa Cruz Biotechnology, US), which inhibits the ligand-receptor interaction, was used as positive control. Plates were developed with TMB Microwell Peroxidase Substrate (KPL, 95059-154). Absorbance was measured at 450 nm. A decrease of absorbance is found, if the anti-CST-1R antibody causes a release of CSF-1 from the dimeric complex. […] Therefore, antibodies of the invention can be used to prevent or treat diseases mediated by CSF-1R or CSF-1.

B1: mouse hybridoma anti-human CSF-1R antibody mAb AB21 (antibody, V domains shown)
VH: EVQLQQSGPELEKPGASVKISCKASGYSFTGYNMNWVKQSNGKSLEWIGNIDPYYGGTTYNQKFKGKATLTVDKSSSTAYMQLKSLTSEDSAVYYCARRGDYSGSSYWYFDVWGAGTTVTVSS
VL: DIQMTQSSSYLSVSLGGRVTITCKASDHINNWLAWYQQKPGNAPRLLISGATSLETGVPSRFSGSGSGKDYTLSITSLQTEDVVTYYCQQYWSTPFTFGSGTKLEIK
notes: Mouse monoclonal antibody purified from hybridoma ascites (Protein A); also called AB21 mAb; mAb 21
Usually Kd stands for a measure of binding affinity in units of concentration. Read a high Kd as a looser complex. A word on the EC50: it is the concentration giving half of the maximal effect. A high value points to a less potent agent. What is called koff is the first-order rate constant of dissociation. A high value points to fast dissociation. Broadly, the kon is a measure of how fast the partners come together. A higher kon goes with fast association. For B1, the binding result is given as “no binding” in the test with mouse CSF-1R and “no binding (tested: about 3e-8 M (log -7.5 on the axis))” in test [2]. In addition, the Kd in test [1] was 0.745 nM; in test [3] it was 0.123 nM. Further, the EC50 turned out to be 0.745 nM in test [4] and 0.374 nM in test [5]. Moreover, the koff in test [6] was determined as 4.9e-05 s⁻¹. Moreover, in test [6], the kon amounted to 399000 M⁻¹ s⁻¹. For the same molecule, in test [7], the “IC50 (read off the curve)” value was around 2 nM.
